Here are results for 1 molecule from PMC6299665 (Journal for Immunotherapy of Cancer, 2018).

As usually defined, the koff is a measure of how fast the partners let go of each other. Usually Kd stands for the equilibrium constant for the complex coming apart.

Test [1] deals with T1, human OX40, histidine-tagged recombinant (human, UniProt P43489 29-214).
T1 chain: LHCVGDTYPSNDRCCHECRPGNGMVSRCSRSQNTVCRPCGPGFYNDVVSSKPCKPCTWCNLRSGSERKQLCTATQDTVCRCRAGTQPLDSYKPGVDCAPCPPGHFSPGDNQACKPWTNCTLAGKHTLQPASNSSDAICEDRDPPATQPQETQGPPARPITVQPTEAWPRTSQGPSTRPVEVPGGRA
In words: SPR. In general terms: In SPR one partner is held on a chip, and binding of the other changes the refractive index at the surface.

The target in test [2] is T2, human OX40, histidine-tagged recombinant (human, UniProt P43489 29-214).
T2 construct: OX40, human, recombinant; also called hOX40-His; source: bought: Acro Biosystems (SPR); for the ELISAs the vendor is one of Jackson ImmunoResearch, Sino Biological, Acro Biosystems, R&D Systems
T2 sequence (looked up): T1 chain
In words: SPR; BioRAD ProteOn XPR36; His-tagged targets immobilised on Ni-activated HTG chip; analyte in PBS/Tween (0.005%) pH 7.0, 3 min injection, 5 min dissociation, flow 80-100 μl/min. To be noted: both partners purified.

B1: recombinant human OX40L-Fc (Fc fusion, UniProt P23510 51-183, looked up)
chain: QVSHRYPRIQSIKVQFTEYKKEKGFILTSQKEDEIMKVQNNSVIINCDGFYLISLKGYFSQEVNISLHYQKDEEPLFQLKKVRSVNSLMVASLTYKDKVYLNVTTDNTSLDDFHVNGGELILIHQNPGEFCVL
notes: OX40L, human, recombinant Fc fusion; The background says in general that in OX40L-Fc proteins the Fc precedes OX40L; also called hOX40L-Fc; Fc-OX40L; source: bought: Acro Biosystems
For B1, in test [1], the dissociation rate constant (koff) worked out at 0.00069 s⁻¹. For the same molecule, the Kd in test [2] is 9.28 nM.
